In US20220054617A1, “SUBUNIT VACCINE CONSTRUCTS FOR FLAVIVIRUSES” (priority 2018, published 2022):
“Also recorded” adds a separate entry of the source.

What was measured:
[1] = system: DENV-1; assay: ADE / protection against DENV-1 by rabbit antisera (CPE/cell death, 4G2 immunostain); assay type: cell-based, dengue virus; settings: in vitro challenge
[2] = system: DENV-4; assay: ADE / protection against DENV-4 by rabbit antisera (CPE/cell death, 4G2 immunostain); assay type: cell-based, dengue virus; settings: in vitro challenge
[3] = molecular target: T1, DENV-1 antigen (Dengue virus type 1, UniProt P17763, A649T/F617I/M577V/S619T/V660I); assay: Serological cross reactivity matrix (ELISA), DENV-1 antigen; assay type: binding; settings: Immune-2 rabbit sera
T1 construct: made in house; host or cells: E. coli BL21(DE3)-pRARE
Text: (§1) FIG. 10B-FIG. 10C show exemplary results of a serological cross reactivity matrix. Immune-2 sera from rabbits immunized with the 6 antigens were screened by ELISA for homologous titers. Samples with highest titers were examined for immunoreactivity with all antigens. […] DENV-1 Ag is recognized by anti-DENV-3 and anti-ZIKV antisera. Conversely, anti-DENV-3 antisera recognizes ZIKV antigen. Anti-ZIKV antisera recognizes WNV antigen very strongly.

[4] = molecular target: T2, ZIKV antigen (Zika virus, UniProt Q32ZE1); assay: Serological cross reactivity matrix (ELISA), ZIKV antigen; assay type: binding; settings: Immune-2 rabbit sera
T2 construct: made in house; host or cells: E. coli BL21(DE3)-pRARE
Text: as §1

[5] = system: DENV-2; assay: Seroconversion, DENV-2-specific IgG titers; assay type: in vivo, rabbits; settings: three immunization regimes of Table 8
Procedure: (§2) Pre-immune test-bleeds are first obtained from adult New Zealand White rabbits via venipuncture of the marginal vein of the ear on Day 1. The rabbits are immunized intramuscularly in the flank region with (a) 10 μg of antigen in 0.2 mL saline (n=4 for non-adjuvanted, antigen+saline control cohort), or (b) 10 μg of antigen plus 100 μg of adjuvant in 0.2 mL saline (n=4 for antigen+adjuvant test cohorts). An aqueous formulation for all adjuvants and antigens is ensured. Animals are immunized on Days 1, 15, and 28. A final test-bleed is performed via the marginal vein of the ear on Day 38. Sera may be banked at −80° C. for further analysis.
(§3) Rabbits (n=4/cohort) were immunized with 10 μg each antigen per dose as described in the Standardized Rabbit Model of Immunogenicity modified as shown in Table 8.

[6] = system: DENV-3; assay: Seroconversion, DENV-3-specific IgG titers; assay type: in vivo, rabbits; settings: three immunization regimes of Table 8
Procedure: as §2, §3

T2 sequence (Q32ZE1 582-689, looked up, natural form): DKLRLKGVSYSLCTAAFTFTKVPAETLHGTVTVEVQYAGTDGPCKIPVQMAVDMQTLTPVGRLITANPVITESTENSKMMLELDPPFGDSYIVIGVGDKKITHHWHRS
T1 sequence (P17763 571-673, looked up, stated change not applied): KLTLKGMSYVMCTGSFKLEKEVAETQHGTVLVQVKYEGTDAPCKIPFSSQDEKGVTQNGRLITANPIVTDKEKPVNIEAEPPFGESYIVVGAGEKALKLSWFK

B1: DENV-3: DENV-3 E-glycoprotein subunit antigen, SEQ ID NO: 4 (protein)
chain: SNALKGMSYAMCTNTFVLKKEVSETQHGTILIKVEYKGEDAPCKIPFSTEDGQGKAHNGRLITANPVVTKKEEPVNIEAEPPFGESNIVIGIGDNALKINWYKK
modifications: Dengue virus 3
[1]
  protection / neutralization against DENV-1 (heterologous): neutralizes; also recorded: prominent heterologous protection
[2]
  protection / neutralization against DENV-4 (heterologous): neutralizes
[3]
  cross-reactivity of antisera with DENV-1 antigen: Significant cross-reactivity; also recorded: recognized
[4]
  cross-reactivity of antisera with ZIKV antigen: reciprocal cross-reactivity was evident; also recorded: recognizes

B2: SGp(L)-DENV-2: SGp(L) fusion of DENV-2 antigen, SEQ ID NO: 39 (protein)
chain: MHHHHHHSTSLAEAKVLANRELDKYGVSDYYKNLINNAKTVEGVKALIDEILAALPKGTQLKGMSYSMCTGKFKVVKEIAETQHGTIVVRVQYEGDGSPCKIPFEIMDLEKRHVLGRLITVNPIVTEKDSPVNIEAEPPFGDSYIIIGVEPGQLKLSWFKK
[5]
  seroconversion (DENV-2-specific IgG titers): equivalence between all three immunization regimes

B3: SGp(L)-DENV-3: SGp(L) fusion of DENV-3 antigen, SEQ ID NO: 40 (protein)
chain: MHHHHHHSTSLAEAKVLANRELDKYGVSDYYKNLINNAKTVEGVKALIDEILAALPKGTLKGMSYAMCTNTFVLKKEVSETQHGTILIKVEYKGEDAPCKIPFSTEDGQGKAHNGRLITANPVVTKKEEPVNIEAEPPFGESNIVIGIGDNALKINWYKK
[6]
  seroconversion (DENV-3-specific IgG titers): equivalence between all three immunization regimes
